Blank lines part the entries; values can stand above or below the binder they belong to.
Legend:
Assay in all cases: holdup assay
Design in all cases: key: below the threshold = too weak to quantify, mostly under pKd 3.1 to 4
Conditions in all cases: plain residues with an end cap or a label only (N-terminal biotin on a linker: ttds)
CNKSR1, Q969H4 = target: T1, CNKSR1, Q969H4
T1 sequence (Q969H4 191-295, limits assumed, looked up): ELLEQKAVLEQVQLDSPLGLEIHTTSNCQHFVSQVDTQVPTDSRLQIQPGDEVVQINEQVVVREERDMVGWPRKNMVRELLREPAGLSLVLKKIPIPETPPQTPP

O00233 = target: O00233
O00560 = target: O00560
O15021 = target: O15021
Q13009 = target: Q13009
Q13368 = target: Q13368
Q5TCQ9 = target: Q5TCQ9
Q8IUC4 = target: Q8IUC4
Q8TB45 = target: Q8TB45
Q8TDM6 = target: Q8TDM6
Q8TEW0 = target: Q8TEW0
Q92614 = target: Q92614
Q96FS4 = target: Q96FS4
Q96HC4 = target: Q96HC4
Q96JY6 = target: Q96JY6
Q9C0E4 = target: Q9C0E4
Q9NPB6 = target: Q9NPB6
Q9P227 = target: Q9P227
Q9UDY2 = target: Q9UDY2
Q9UMS6 = target: Q9UMS6
RGS12, O14924 = target: T2, RGS12, O14924
T2 sequence (O14924 17-108, limits assumed, looked up): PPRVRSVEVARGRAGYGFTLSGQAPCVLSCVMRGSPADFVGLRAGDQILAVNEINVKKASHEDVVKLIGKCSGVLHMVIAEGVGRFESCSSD

INTU, Q9ULD6 = target: T3, INTU, Q9ULD6
T3 sequence (Q9ULD6 180-273, limits assumed, looked up): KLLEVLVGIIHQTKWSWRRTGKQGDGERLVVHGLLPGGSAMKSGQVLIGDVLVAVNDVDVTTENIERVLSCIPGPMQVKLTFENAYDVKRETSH

LIMK1, P53667 = target: LIMK1, P53667
Chain of LIMK1, P53667 (P53667 155-268): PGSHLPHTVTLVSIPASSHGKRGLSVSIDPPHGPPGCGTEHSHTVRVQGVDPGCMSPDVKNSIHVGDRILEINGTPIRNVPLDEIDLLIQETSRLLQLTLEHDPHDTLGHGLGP

- pKd (CNKSR1, Q969H4): below the threshold
- pKd (O00233): below the threshold
- pKd (O00560): below the threshold
- pKd (O15021): below the threshold
- pKd (Q13009): below the threshold
- pKd (Q13368): below the threshold
- pKd (Q5TCQ9): below the threshold
- pKd (Q8IUC4): below the threshold
- pKd (Q8TB45): below the threshold
- pKd (Q8TDM6): below the threshold
- pKd (Q8TEW0): below the threshold
- pKd (Q92614): below the threshold
- pKd (Q96FS4): below the threshold
- pKd (Q96HC4): below the threshold
- pKd (Q96JY6): below the threshold
- pKd (Q9C0E4): below the threshold
- pKd (Q9NPB6): below the threshold
- pKd (Q9P227): below the threshold
- pKd (Q9UDY2): below the threshold
- pKd (Q9UMS6): below the threshold
- pKd (RGS12, O14924): below the threshold
B1: DGKZ, Q13574 (peptide)
chain: IQREDQETAV

- pKd (CNKSR1, Q969H4): 4.3
- pKd (INTU, Q9ULD6): below the threshold
- pKd (LIMK1, P53667): 4.32
- pKd (O00233): below the threshold
- pKd (O00560): below the threshold
- pKd (O15021): below the threshold
- pKd (Q13009): below the threshold
- pKd (Q13368): below the threshold
- pKd (Q5TCQ9): below the threshold
- pKd (Q8IUC4): below the threshold
- pKd (Q8TB45): below the threshold
- pKd (Q8TDM6): below the threshold
- pKd (Q8TEW0): below the threshold
- pKd (Q92614): below the threshold
- pKd (Q96FS4): below the threshold
- pKd (Q96HC4): below the threshold
- pKd (Q96JY6): below the threshold
- pKd (Q9C0E4): below the threshold
- pKd (Q9NPB6): below the threshold
- pKd (Q9P227): below the threshold
- pKd (Q9UDY2): below the threshold
- pKd (Q9UMS6): below the threshold
- pKd (RGS12, O14924): below the threshold
B2: DGKK, Q5KSL6 (peptide)
chain: DPLTPSRSQL

- pKd (CNKSR1, Q969H4): below the threshold
- pKd (INTU, Q9ULD6): below the threshold
- pKd (LIMK1, P53667): below the threshold
- pKd (O00233): below the threshold
- pKd (O00560): below the threshold
- pKd (O15021): below the threshold
- pKd (Q13009): below the threshold
- pKd (Q13368): below the threshold
- pKd (Q5TCQ9): below the threshold
- pKd (Q8IUC4): below the threshold
- pKd (Q8TB45): below the threshold
- pKd (Q8TDM6): below the threshold
- pKd (Q8TEW0): below the threshold
- pKd (Q92614): below the threshold
- pKd (Q96FS4): below the threshold
- pKd (Q96HC4): below the threshold
- pKd (Q96JY6): below the threshold
- pKd (Q9C0E4): below the threshold
- pKd (Q9NPB6): below the threshold
- pKd (Q9P227): below the threshold
- pKd (Q9UDY2): below the threshold
- pKd (Q9UMS6): below the threshold
- pKd (RGS12, O14924): below the threshold
B3: SLCO1C1, Q9NYB5 (peptide)
chain: NYWPGKETQL

Reference: PMC9482650, “Quantitative fragmentomics allow affinity mapping of interactomes” (Nature Communications, 2022)
